The values that follow come from patent publication US20200199241A1 (Chugai, published 2020).

B1: IgG1-F410 (antibody)
heavy: QVQLQESGPGLVKPSETLSLTCAVSGHSISHDHAWSWVRQPPGEGLEWIGFISYSGITNYNPSLQGRVTISRDNSKNTLYLQMNSLRAEDTAVYYCARSLARTTAMDYWGEGTLVTVSSASTKGPSVFPLAPSSKSTSGGTAALGCLVKDYFPEPVTVSWNSGALTSGVHTFPAVLQSSGLYSLSSVVTVPSSSLGTQTYICNVNHKPSNTKVDKKVEPKSCDKTHTCPPCPAPELLGGPSVFLFPPKPKDTLMISRTVEVTCVVVDVSHEDPEVKFNWYVDGVEVHNAKTKPREEQYNSTYRVVSVLHVLHQDWLNGKEYKCKVSNKALPAPIEKTISKAKGQPREPQVYTLPPSRDELTKNQVSLTCLVKGFYPSDIAVEWESNGQPENNYKTTPPVLDSDGSFFLYSKLTVDKSRWQQGNVFSCSVLHEALHYHYTQKSLSLSP
light: not shown
notes: EU numbering; copies: 2 + 2
B2: IgG1-F423 (antibody)
heavy: QVQLQESGPGLVKPSETLSLTCAVSGHSISHDHAWSWVRQPPGEGLEWIGFISYSGITNYNPSLQGRVTISRDNSKNTLYLQMNSLRAEDTAVYYCARSLARTTAMDYWGEGTLVTVSSASTKGPSVFPLAPSSKSTSGGTAALGCLVKDYFPEPVTVSWNSGALTSGVHTFPAVLQSSGLYSLSSVVTVPSSSLGTQTYICNVNHKPSNTKVDKKVEPKSCDKTHTCPPCPAPELLGGPSVFLFPPKPKDTLYISRTPEVTCVVVDVSHEDPEVKFNWYVDGVEVHNAKTKPREEQYNSTYRVVSVLWVLHHDWLNGKEYKCKVSNKALPAPIEKTISKAKGQPREPQVYTLPPSRDELTKNQVSLTCLVKGFYPSDIAVEWESNGQPENNYKTTPPVLDSDGSFFLYSKLTVDKSRWQQGNVFSCSVMHEALHYHYTQKSLSLSP
light: not shown
notes: EU numbering; copies: 2 + 2
B3: IgG1-F420 (antibody)
heavy: QVQLQESGPGLVKPSETLSLTCAVSGHSISHDHAWSWVRQPPGEGLEWIGFISYSGITNYNPSLQGRVTISRDNSKNTLYLQMNSLRAEDTAVYYCARSLARTTAMDYWGEGTLVTVSSASTKGPSVFPLAPSSKSTSGGTAALGCLVKDYFPEPVTVSWNSGALTSGVHTFPAVLQSSGLYSLSSVVTVPSSSLGTQTYICNVNHKPSNTKVDKKVEPKSCDKTHTCPPCPAPELLGGPSVFLFPPKPKDTLYISRTPEVTCVVVDVSHEDPEVKFNWYVDGVEVHNAKTKPREEQYNSTYRVVSVLAVLHHDWLNGKEYKCKVSNKALPAPIEKTISKAKGQPREPQVYTLPPSRDELTKNQVSLTCLVKGFYPSDIAVEWESNGQEENNYKTTPPVLDSDGSFFLYSKLTVDKSRWQQGNVFSCSVMHEALHYHYTQKSLSLSP
light: not shown
notes: EU numbering; copies: 2 + 2
B4: IgG1-F422 (antibody)
heavy: QVQLQESGPGLVKPSETLSLTCAVSGHSISHDHAWSWVRQPPGEGLEWIGFISYSGITNYNPSLQGRVTISRDNSKNTLYLQMNSLRAEDTAVYYCARSLARTTAMDYWGEGTLVTVSSASTKGPSVFPLAPSSKSTSGGTAALGCLVKDYFPEPVTVSWNSGALTSGVHTFPAVLQSSGLYSLSSVVTVPSSSLGTQTYICNVNHKPSNTKVDKKVEPKSCDKTHTCPPCPAPELLGGPSVFLFPPKPKDTLYISRTPEVTCVVVDVSHEDPEVKFNWYVDGVEVHNAKTKPREEQYNSTYRVVSVLAVLHHDWLNGKEYKCKVSNKALPAPIEKTISKAKGQPREPQVYTLPPSRDELTKNQVSLTCLVKGFYPSDIAVEWASNGQPENNYKTTPPVLDSDGSFFLYSKLTVDKSRWQQGNVFSCSVMHEALHYHYTQKSLSLSP
light: not shown
notes: EU numbering; copies: 2 + 2
B5: IgG1-F415 (antibody)
heavy: QVQLQESGPGLVKPSETLSLTCAVSGHSISHDHAWSWVRQPPGEGLEWIGFISYSGITNYNPSLQGRVTISRDNSKNTLYLQMNSLRAEDTAVYYCARSLARTTAMDYWGEGTLVTVSSASTKGPSVFPLAPSSKSTSGGTAALGCLVKDYFPEPVTVSWNSGALTSGVHTFPAVLQSSGLYSLSSVVTVPSSSLGTQTYICNVNHKPSNTKVDKKVEPKSCDKTHTCPPCPAPELLGGPSVFLFPPKPKDTLMISRTVEVTCVVVDVSHEDPEVKFNWYVDGVEVHEAKTKPREEQYNSTYRVVSVLAVLHQDWLNGKEYKCKVSNKALPAPIEKTISKAKGQPREPQVYTLPPSRDELTKNQVSLTCLVKGFYPSDIAVEWESNGQPENNYKTTPPVLDSDGSFFLYSKLTVDKSRWQQGNVFSCSVLHEALHYHYTQKSLSLSP
light: not shown
notes: EU numbering; copies: 2 + 2
B6: IgG1-F418 (antibody)
heavy: QVQLQESGPGLVKPSETLSLTCAVSGHSISHDHAWSWVRQPPGEGLEWIGFISYSGITNYNPSLQGRVTISRDNSKNTLYLQMNSLRAEDTAVYYCARSLARTTAMDYWGEGTLVTVSSASTKGPSVFPLAPSSKSTSGGTAALGCLVKDYFPEPVTVSWNSGALTSGVHTFPAVLQSSGLYSLSSVVTVPSSSLGTQTYICNVNHKPSNTKVDKKVEPKSCDKTHTCPPCPAPELLGGPKVFLFPPKPKDTLYISRTPEVTCVVVDVSHEDPEVKFNWYVDGVEVHNAKTKPREEQYNSTYRVVSVLPVLHQDWLNGKEYKCKVSGKALPAPIEKTISKAKGQPREPQVYTLPPSRDELTKNQVSLTCLVKGFYPSDIAVEWESNGQPENNYKTTPPVLDSDGSFFLYSKLTVDKSRWQQGNVFSCSVYHEALHYHYTQKSLSLSP
light: not shown
notes: EU numbering; copies: 2 + 2
B7: IgG1-F425 (antibody)
heavy: QVQLQESGPGLVKPSETLSLTCAVSGHSISHDHAWSWVRQPPGEGLEWIGFISYSGITNYNPSLQGRVTISRDNSKNTLYLQMNSLRAEDTAVYYCARSLARTTAMDYWGEGTLVTVSSASTKGPSVFPLAPSSKSTSGGTAALGCLVKDYFPEPVTVSWNSGALTSGVHTFPAVLQSSGLYSLSSVVTVPSSSLGTQTYICNVNHKPSNTKVDKKVEPKSCDKTHTCPPCPAPELLGGPSVFLFPPKPKDTLMISRTAEVTCVVVDVSHEDPEVKFNWYVDGVEVHNAKTKPREEQYNSTYRVVSVLTPEHQDWLNGKEYKCKVSNKALPAPIEKTISKAKGQPREPQVYTLPPSRDELTKNQVSLTCLVKGFYPSDIAVEWESNGQPENNYKTTPPVLDSDGSFFLYSKLTVDKSRWQQGNVFSCSVLHEALHYHYTQKSLSLSP
light: not shown
notes: EU numbering; copies: 2 + 2
B8: IgG1-F412 (antibody)
heavy: QVQLQESGPGLVKPSETLSLTCAVSGHSISHDHAWSWVRQPPGEGLEWIGFISYSGITNYNPSLQGRVTISRDNSKNTLYLQMNSLRAEDTAVYYCARSLARTTAMDYWGEGTLVTVSSASTKGPSVFPLAPSSKSTSGGTAALGCLVKDYFPEPVTVSWNSGALTSGVHTFPAVLQSSGLYSLSSVVTVPSSSLGTQTYICNVNHKPSNTKVDKKVEPKSCDKTHTCPPCPAPELLGGPSVFLFPPKPKDTLMISRTVEVTCVVVDVSHEDPEVKFNWYVDGVEVHNAKTKPREEQYNSTYRVVSVLGVLHQDWLNGKEYKCKVSNKALPAPIEKTISKAKGQPREPQVYTLPPSRDELTKNQVSLTCLVKGFYPSDIAVEWESNGQPENNYKTTPPVLDSDGSFFLYSKLTVDKSRWQQGNVFSCSVLHEALHYHYTQKSLSLSP
light: not shown
notes: EU numbering; copies: 2 + 2
B9: IgG1-F413 (antibody)
heavy: QVQLQESGPGLVKPSETLSLTCAVSGHSISHDHAWSWVRQPPGEGLEWIGFISYSGITNYNPSLQGRVTISRDNSKNTLYLQMNSLRAEDTAVYYCARSLARTTAMDYWGEGTLVTVSSASTKGPSVFPLAPSSKSTSGGTAALGCLVKDYFPEPVTVSWNSGALTSGVHTFPAVLQSSGLYSLSSVVTVPSSSLGTQTYICNVNHKPSNTKVDKKVEPKSCDKTHTCPPCPAPELLGGPSVFLFPPKPKDTLMISRTVEVTCVVVDVSHEDPEVKFNWYVDGVEVHNAKTKPREEQYNSTYRVVSVLPVLHQDWLNGKEYKCKVSNKALPAPIEKTISKAKGQPREPQVYTLPPSRDELTKNQVSLTCLVKGFYPSDIAVEWESNGQPENNYKTTPPVLDSDGSFFLYSKLTVDKSRWQQGNVFSCSVLHEALHYHYTQKSLSLSP
light: not shown
notes: EU numbering; copies: 2 + 2
B10: IgG1-F424 (antibody)
heavy: QVQLQESGPGLVKPSETLSLTCAVSGHSISHDHAWSWVRQPPGEGLEWIGFISYSGITNYNPSLQGRVTISRDNSKNTLYLQMNSLRAEDTAVYYCARSLARTTAMDYWGEGTLVTVSSASTKGPSVFPLAPSSKSTSGGTAALGCLVKDYFPEPVTVSWNSGALTSGVHTFPAVLQSSGLYSLSSVVTVPSSSLGTQTYICNVNHKPSNTKVDKKVEPKSCDKTHTCPPCPAPELLGGPKVFLFPPKPKDTLMISRTAEVTCVVVDVSHEDPEVKFNWYVDGVEVHNAKTKPREEQYNSTYRVVSVLTPLHQDWLNGKEYKCKVSNKALPAPIEKTISKAKGQPREPQVYTLPPSRDELTKNQVSLTCLVKGFYPSDIAVEWESNGQPENNYKTTPPVLDSDGSFFLYSKLTVDKSRWQQGNVFSCSVLHEALHYHYTQKSLSLSP
light: not shown
notes: copies: 2 + 2
B11: IgG1-F416 (antibody)
heavy: QVQLQESGPGLVKPSETLSLTCAVSGHSISHDHAWSWVRQPPGEGLEWIGFISYSGITNYNPSLQGRVTISRDNSKNTLYLQMNSLRAEDTAVYYCARSLARTTAMDYWGEGTLVTVSSASTKGPSVFPLAPSSKSTSGGTAALGCLVKDYFPEPVTVSWNSGALTSGVHTFPAVLQSSGLYSLSSVVTVPSSSLGTQTYICNVNHKPSNTKVDKKVEPKSCDKTHTCPPCPAPELLGGPSVFLFPPKPKDTLMISRTVEVTCVVVDVSHEDPEVKFNWYVDGVEVHNAKTKPREEQYNSTYRVVSVLAVLHQDWLNGKEYKCKVSNKALPAPIEKTISKAKGQPREPQVYTLPPSRDELTKNQVSLTCLVKGFYPSDIAVEWESNGQEENNYKTTPPVLDSDGSFFLYSKLTVDKSRWQQGNVFSCSVLHEALHYHYTQKSLSLSP
light: not shown
notes: EU numbering; copies: 2 + 2
B12: IgG1-F411 (antibody)
heavy: QVQLQESGPGLVKPSETLSLTCAVSGHSISHDHAWSWVRQPPGEGLEWIGFISYSGITNYNPSLQGRVTISRDNSKNTLYLQMNSLRAEDTAVYYCARSLARTTAMDYWGEGTLVTVSSASTKGPSVFPLAPSSKSTSGGTAALGCLVKDYFPEPVTVSWNSGALTSGVHTFPAVLQSSGLYSLSSVVTVPSSSLGTQTYICNVNHKPSNTKVDKKVEPKSCDKTHTCPPCPAPELLGGPSVFLFPPKPKDTLMISRTVEVTCVVVDVSHEDPEVKFNWYVDGVEVHNAKTKPREEQYNSTYRVVSVLNVLHQDWLNGKEYKCKVSNKALPAPIEKTISKAKGQPREPQVYTLPPSRDELTKNQVSLTCLVKGFYPSDIAVEWESNGQPENNYKTTPPVLDSDGSFFLYSKLTVDKSRWQQGNVFSCSVLHEALHYHYTQKSLSLSP
light: not shown
notes: EU numbering; copies: 2 + 2
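Further: antibodies captured on a Protein L sensor chip with human FcRn injected as analyte, KD calculated from fitted association and dissociation rate constants.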

For the experiment, the target named is T1, human FcRn (soluble human FcRn complexed with β2-microglobulin) (human, UniProt P61769 21-119, limits assumed).
T1 construct: also called hFcRn
T1 sequence (chain, as listed by the source limits assumed, chain 1 of 2): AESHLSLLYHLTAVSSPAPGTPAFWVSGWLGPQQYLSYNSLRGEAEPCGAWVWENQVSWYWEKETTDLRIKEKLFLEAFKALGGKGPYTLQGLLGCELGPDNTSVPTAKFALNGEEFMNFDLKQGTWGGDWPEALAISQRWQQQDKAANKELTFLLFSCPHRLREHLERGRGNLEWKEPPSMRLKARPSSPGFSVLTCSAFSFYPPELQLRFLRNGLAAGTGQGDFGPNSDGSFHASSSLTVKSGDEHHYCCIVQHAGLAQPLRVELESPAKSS
T1 sequence (P61769 21-119 limits assumed, chain 2 of 2): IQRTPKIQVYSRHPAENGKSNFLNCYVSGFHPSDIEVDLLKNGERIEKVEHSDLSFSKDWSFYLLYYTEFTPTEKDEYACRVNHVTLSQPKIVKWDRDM
Description: SPR, pH 7.0. (In general: In SPR one partner is held on a chip, and binding of the other changes the refractive index at the surface.)
Usually Kd stands for the concentration at which binding is half-saturated. Read a low Kd as a tighter complex. In the case of B1, the affinity, expressed as Kd, was 220 nM.
Regarding B2, the Kd was determined as 84 nM.
For B3 the value was 150 nM; for B4, 180 nM; for B5, 56 nM.
For B6 the value was 620 nM; for B7, 80 nM; for B8, 88 nM.
B9 yielded a Kd of 120 nM.
B10 returned a Kd of 94 nM.
For B11 the value was 94 nM; for B12, 130 nM.
